From publication PMC4114559, “Pigment Dispersing Factor Regulates Ecdysone Biosynthesis via Bombyx Neuropeptide G Protein Coupled Receptor-B2 in the Prothoracic Glands of Bombyx mori” (PLoS ONE, 2014)

Tests used:
PGs = details: cited from earlier work
Excerpt: In many cases, a single hormone has multiple functions regulating many physiological phenomena. Thus, both the regulation of receptor expression in the target tissue and the regulation of hormone release are important for the hormone to only affect the target tissue at the appropriate time. In the case of PTTH, the titer of the hormone in the hemolymph is clearly correlated with the ecdysteroid titer ... || In insects, neuropeptide hormones affect the target tissue via humoral and neuronal pathways. […] The increase in intracellular cAMP is thought to be regulated by Ca^2+ signaling in the PTTH signaling pathway, [37]. […] PDF sig ... || (+ 1 further places)

ERK = assay: p-ERK level in cultured PGs (Western blot); format: cell-based, Bombyx mori; details: 15 min, immunoblotting
Method: Dissected PGs were rinsed with Grace's insect culture medium (Gibco) and pre-cultured individually in 100 µl medium in 96-well plates (BD Falcon) at 25°C for 30 min. To evaluate the effect of extracellular Ca^2+ on ecdysone biosynthesis, lepidopteran saline and lepidopteran saline using NaCl as a replacement for CaCl2 were used. For the pharmacological analysis, the PG was pre-treated with the inhibitor for 15 min during the pre-culture period. Following this treatment, the PG was cultured in the desired conditions for the desired period (Ecdysone assay: 3 hours; cAMP assay: 30 min; and Protein phosphorylation assay: 15 min). […]
Dissected PGs were pre-cultured in Grace's culture medium for 30 min, then cultured with or without PDF or PTTH for 15 min. The cultured PGs were sonicated in 50 mM Tris-HCl (pH 6.8) with protease inhibitor cocktail (Complete, Roche) and phosphatase inhibitor cocktail (Wako), lysed in 1x SDS sample buffer excluding 2-mercaptoethanol (2ME) and bromophenol blue (BPB), and the protein concentration was measured using the BCA protein assay kit (Pierce). […]
Figure 4 Signaling pathways involved in PDF-induced ecdysone biosynthesis. […] The transcript levels of nvd, nm-g, spo, phm, dib and sad were quantified with Q-PCR. […] Statistically significant differences were evaluated by Student's t-test (***P<0.001, **P<0.01). […]

B1: PTTH: prothoracicotropic hormone, humoral pathway-mediated tropic hormone (protein, UniProt P17219 116-224, looked up)
Prothoracicotropic hormone: GNIQVENQAIPDPPCTCKYKKEIEDLGENSVPRFIETRNCNKTQQPTCRPPYICKESLYSITILKRRETKSQESLEIPNELKYRWVAESHPVSVACLCTRDYQLRYNNN
modifications: Prothoracicotropic hormone
For B1, the “response of V4 PGs, ecdysone synthesis in vitro (literature)” value (PGs; PGs of V4, ref [8]) is given as “capable of responding to PTTH stimulus and synthesize ecdysone in vitro”, the “ecdysone biosynthesis when extracellular Ca2+ is depleted (literature)” value (PGs; extracellular Ca2+ depleted, ref [27], [37]) is given as “cannot stimulate ecdysone biosynthesis when extracellular Ca^2+ is depleted” and the “effect of a transcription inhibitor on PTTH- and dbcAMP-induced ecdysone biosynthesis (literature)” value (PGs; ref [39]) is given as “ecdysone biosynthesis was suppressed by a transcription inhibitor”. For the same molecule, the “level of p-ERK” value (ERK) was “upregulated”.
